Earlier results in patent publication US20250302913A1, “LACRIPEP PROMOTES NEUROREGENERATION AND MAINTAINS EPITHELIAL PROGENITOR CELL IDENTITY” (The Regents of The University of California, priority 2022, published 2025).

T1: syndecan-1 (SDC1) (Homo sapiens, UniProt P18827)
T1 sequence (P18827 23-310): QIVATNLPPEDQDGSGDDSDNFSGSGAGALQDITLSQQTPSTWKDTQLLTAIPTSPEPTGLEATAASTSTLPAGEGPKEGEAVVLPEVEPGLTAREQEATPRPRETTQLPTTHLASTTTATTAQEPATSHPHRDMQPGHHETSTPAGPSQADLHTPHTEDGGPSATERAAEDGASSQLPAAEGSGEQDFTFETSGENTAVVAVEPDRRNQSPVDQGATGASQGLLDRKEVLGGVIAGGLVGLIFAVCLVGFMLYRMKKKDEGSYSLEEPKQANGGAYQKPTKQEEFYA

B1: Lacritin: endogenous glycoprotein initially identified in tears (protein, listed as Homo sapiens)
chain: MKFTTLLFLAAVAGALVYAEDASSDSTGADPAQEAGTSKPNEEISGPAEPASPPETTTTAQETSAAAVQGTAKVTSSRQELNPLKSIVEKSILLTEQALAKAGKGMHGGVPGGKQFIENGSEFAQKLLKKFSLLKPWA
modifications: Description of sequence: Lacritin
notes: endogenous glycoprotein initially identified in tears

Experiments:
human patients = conditions: controlled clinical studies; cited from earlier work
rabbit corneas = conditions: after refractive surgery; cited from earlier work
syndecan-1 (SDC1) = target: T1, syndecan-1 (SDC1); conditions: cited from earlier work
healthy rabbit model = conditions: cited from earlier work
corneal epithelial cell = conditions: in vitro; cited from earlier work

Molecule	corneal sensitivity or visual acuity versus vehicle (artificial tears) (human patients)	reinnervation of corneas (rabbit corneas)	binding and activation of syndecan-1 (syndecan-1 (SDC1))	basal tearing (healthy rabbit model)	corneal epithelial cell proliferation (corneal epithelial cell)
cenegermin: recombinant nerve growth factor	failed to show significant benefit over vehicle	stimulated the reinnervation of rabbit corneas			
B1			bind and activate	promote basal tearing	promote corneal epithelial cell proliferation
